Among the data in PMC5740175 are binding signal (% of WT bound) and Kd values, retold here.

In data set [1] the test system is IRP1 (iron regulatory protein 1). Description: EMSA. To be noted: 25 mM Tris/HCl pH 7.4, 40 mM KCl, 1% Triton X-100, protease inhibitor (EDTA-free), 200 ng IRP1, 100 ng labeled probe, 15 min room temperature, then 50 ng …. A general note: In EMSA bound probe runs differently from free probe, usually more slowly.
The test system is the same in data set [2]. Nature of the data set: competition EMSA. To be noted: 25 mM Tris/HCl pH 7.4, 40 mM KCl, 1% Triton X-100, protease inhibitor (EDTA-free); 200 ng IRP1, 100 ng labeled probe; 15 min room temperature, then 50 ng ….

FTL 5' IRE +39ΔC registered a binding signal (% of WT bound) in data set [1] (direct, minimal binding, reduction of almost 95%, mean of 4, heparin) of 5.
A word on the Kd: it is the free concentration of one partner at which half of the binding sites on the other are occupied at equilibrium, for simple one-to-one binding. Lower therefore signals tighter binding. FTL 5' IRE Ghent +49A>G: the binding signal (% of WT bound) in data set [1] (direct, 75% decrease, mean of 4, heparin) worked out at 25. In addition, the Kd in data set [2] turned out to be 2.7 nM.
In turn, FTL 5' IRE WT showed a binding signal (% of WT bound) in data set [1] of 100. Moreover, in data set [2], the dissociation constant (Kd) amounted to 0.5 nM.
